Reference: patent publication US20220017637A1 (Hoffmann-La Roche, published 2022)

Columns and labels:
[1] = molecular target: T1, human CD28 on CHO cells (parental cell line CHO-k1 ATCC #CCL-61, modified to stably overexpress human CD28) (human, UniProt P10747 19-220); assay: flow cytometry (MFI PE), one-armed IgG from supernatant on CHO-k1 cells stably overexpressing human CD28; PE-conjugated goat anti-human secondary
T1 construct: The whole entry (with signal peptide) is named; also called CHOk1-huCD28; CHOk1 huCD28

[2] = molecular target: T1, human CD28 on CHO cells (parental cell …); assay: as above; remark: listed apart in the source
[3] = molecular target: T2, Her2 expressed on the cell surface of the human breast cancer cell line KPL-4 (human, UniProt P04626 23-1255); assay: flow cytometry (MFI PE); panel title on the sheet: Binding to human Her2, KPL4; R-PE F(ab')2 goat anti-human IgG Fcgamma secondary
T2 construct: endogenous Her2 of KPL-4 cells stood in the assay; also called ErbB2; human epidermal growth factor receptor-2

[4] = molecular target: T1, human CD28 on CHO cells (parental cell …); assay: flow cytometry (MFI PE); panel title on the sheet: Binding to human CD28, CHO-k1-huCD28; R-PE F(ab')2 goat anti-human IgG Fcgamma secondary

Binder	binding result [1]	binding result [2]	also measured
CD28(SA)_variant_15 (antibody, human IgG1, kappa, L234A L235A, tested from HEK supernatant, unpurified; also called P1AE3071) heavy: not shown light: not shown DKTHTCPPCPAPEAAGGPSVFLFPPKPKDTLMISRTPEVTCVVVDVSHEDPEVKFNWYVDGVEVHNAKTKPREEQYNSTYRVVSVLTVLHQDWLNGKEYKCKVSNKALGAPIEKTISKAKGQPREPQVCTLPPSRDELTKNQVSLSCAVKGFYPSDIAVEWESNGQPENNYKTTPPVLDSDGSFFLVSKLTVDKSRWQQGNVFSCSVMHEALHNRFTQKSLSLSP	binds	–	–
CD28(SA)_variant_16 (antibody, human IgG1, kappa, L234A L235A, tested from HEK supernatant, unpurified; also called P1AE3072) heavy: not shown light: not shown DKTHTCPPCPAPEAAGGPSVFLFPPKPKDTLMISRTPEVTCVVVDVSHEDPEVKFNWYVDGVEVHNAKTKPREEQYNSTYRVVSVLTVLHQDWLNGKEYKCKVSNKALGAPIEKTISKAKGQPREPQVCTLPPSRDELTKNQVSLSCAVKGFYPSDIAVEWESNGQPENNYKTTPPVLDSDGSFFLVSKLTVDKSRWQQGNVFSCSVMHEALHNRFTQKSLSLSP	binds	–	–
CD28(SA)_variant_17 (antibody, human IgG1, kappa, L234A L235A, tested from HEK supernatant, unpurified; also called P1AE3073) heavy: not shown light: not shown DKTHTCPPCPAPEAAGGPSVFLFPPKPKDTLMISRTPEVTCVVVDVSHEDPEVKFNWYVDGVEVHNAKTKPREEQYNSTYRVVSVLTVLHQDWLNGKEYKCKVSNKALGAPIEKTISKAKGQPREPQVCTLPPSRDELTKNQVSLSCAVKGFYPSDIAVEWESNGQPENNYKTTPPVLDSDGSFFLVSKLTVDKSRWQQGNVFSCSVMHEALHNRFTQKSLSLSP	binds	–	–
CD28(SA)_variant_25 (antibody, human IgG1, kappa, L234A L235A, tested from HEK supernatant, unpurified; also called P1AE3081) heavy: not shown light: not shown DKTHTCPPCPAPEAAGGPSVFLFPPKPKDTLMISRTPEVTCVVVDVSHEDPEVKFNWYVDGVEVHNAKTKPREEQYNSTYRVVSVLTVLHQDWLNGKEYKCKVSNKALGAPIEKTISKAKGQPREPQVCTLPPSRDELTKNQVSLSCAVKGFYPSDIAVEWESNGQPENNYKTTPPVLDSDGSFFLVSKLTVDKSRWQQGNVFSCSVMHEALHNRFTQKSLSLSP	–	binds	–
CD28(SA)_variant_26 (antibody, human IgG1, kappa, L234A L235A, tested from HEK supernatant, unpurified; also called P1AE3082) heavy: not shown light: not shown DKTHTCPPCPAPEAAGGPSVFLFPPKPKDTLMISRTPEVTCVVVDVSHEDPEVKFNWYVDGVEVHNAKTKPREEQYNSTYRVVSVLTVLHQDWLNGKEYKCKVSNKALGAPIEKTISKAKGQPREPQVCTLPPSRDELTKNQVSLSCAVKGFYPSDIAVEWESNGQPENNYKTTPPVLDSDGSFFLVSKLTVDKSRWQQGNVFSCSVMHEALHNRFTQKSLSLSP	–	binds	–
CD28(SA)_variant_27 (antibody, human IgG1, kappa, L234A L235A, tested from HEK supernatant, unpurified; also called P1AE3083) heavy: not shown light: not shown DKTHTCPPCPAPEAAGGPSVFLFPPKPKDTLMISRTPEVTCVVVDVSHEDPEVKFNWYVDGVEVHNAKTKPREEQYNSTYRVVSVLTVLHQDWLNGKEYKCKVSNKALGAPIEKTISKAKGQPREPQVCTLPPSRDELTKNQVSLSCAVKGFYPSDIAVEWESNGQPENNYKTTPPVLDSDGSFFLVSKLTVDKSRWQQGNVFSCSVMHEALHNRFTQKSLSLSP	–	binds	–
CD28(SA)_variant_29 (antibody, human IgG1, kappa, L234A L235A, tested from HEK supernatant, unpurified; also called P1AE3085) heavy: not shown light: not shown DKTHTCPPCPAPEAAGGPSVFLFPPKPKDTLMISRTPEVTCVVVDVSHEDPEVKFNWYVDGVEVHNAKTKPREEQYNSTYRVVSVLTVLHQDWLNGKEYKCKVSNKALGAPIEKTISKAKGQPREPQVCTLPPSRDELTKNQVSLSCAVKGFYPSDIAVEWESNGQPENNYKTTPPVLDSDGSFFLVSKLTVDKSRWQQGNVFSCSVMHEALHNRFTQKSLSLSP	–	binds	–
CD28(SA)_variant_12 (antibody, human IgG1, kappa, L234A L235A, tested from HEK supernatant, unpurified; also called P1AE3068) heavy: not shown light: DIQMTQSPSSLSASVGDRVTITCRASQNIYVWLNWYQQKPGKAPKLLIYKASNLYSGVPSRFSGSRSGTDFTLTISSLQPEDFATYYCQQGQTYPYTFGQGTKLEIKRTVAAPSVFIFPPSDRKLKSGTASVVCLLNNFYPREAKVQWKVDNALQSGNSQESVTEQDSKDSTYSLSSTLTLSKADYEKHKVYACEVTHQGLSSPVTKSFNRGEC DKTHTCPPCPAPEAAGGPSVFLFPPKPKDTLMISRTPEVTCVVVDVSHEDPEVKFNWYVDGVEVHNAKTKPREEQYNSTYRVVSVLTVLHQDWLNGKEYKCKVSNKALGAPIEKTISKAKGQPREPQVCTLPPSRDELTKNQVSLSCAVKGFYPSDIAVEWESNGQPENNYKTTPPVLDSDGSFFLVSKLTVDKSRWQQGNVFSCSVMHEALHNRFTQKSLSLSP	binds	–	–
CD28(SA)_variant_13 (antibody, human IgG1, kappa, L234A L235A, tested from HEK supernatant, unpurified; also called P1AE3069) heavy: not shown light: not shown DKTHTCPPCPAPEAAGGPSVFLFPPKPKDTLMISRTPEVTCVVVDVSHEDPEVKFNWYVDGVEVHNAKTKPREEQYNSTYRVVSVLTVLHQDWLNGKEYKCKVSNKALGAPIEKTISKAKGQPREPQVCTLPPSRDELTKNQVSLSCAVKGFYPSDIAVEWESNGQPENNYKTTPPVLDSDGSFFLVSKLTVDKSRWQQGNVFSCSVMHEALHNRFTQKSLSLSP	binds	–	–
CD28(SA)_variant_30 (antibody, human IgG1, kappa, L234A L235A, tested from HEK supernatant, unpurified; also called P1AE3086) heavy: not shown light: DIQMTQSPSSLSASVGDRVTITCRASQNIYVWLNWYQQKPGKAPKLLIYKASNLYSGVPSRFSGSRSGTDFTLTISSLQPEDFATYYCQQGQTYPYTFGQGTKLEIKRTVAAPSVFIFPPSDRKLKSGTASVVCLLNNFYPREAKVQWKVDNALQSGNSQESVTEQDSKDSTYSLSSTLTLSKADYEKHKVYACEVTHQGLSSPVTKSFNRGEC DKTHTCPPCPAPEAAGGPSVFLFPPKPKDTLMISRTPEVTCVVVDVSHEDPEVKFNWYVDGVEVHNAKTKPREEQYNSTYRVVSVLTVLHQDWLNGKEYKCKVSNKALGAPIEKTISKAKGQPREPQVCTLPPSRDELTKNQVSLSCAVKGFYPSDIAVEWESNGQPENNYKTTPPVLDSDGSFFLVSKLTVDKSRWQQGNVFSCSVMHEALHNRFTQKSLSLSP	–	binds	–
CD28(SA)_variant_31 (antibody, human IgG1, kappa, L234A L235A, tested from HEK supernatant, unpurified; also called P1AE3087) heavy: not shown light: not shown DKTHTCPPCPAPEAAGGPSVFLFPPKPKDTLMISRTPEVTCVVVDVSHEDPEVKFNWYVDGVEVHNAKTKPREEQYNSTYRVVSVLTVLHQDWLNGKEYKCKVSNKALGAPIEKTISKAKGQPREPQVCTLPPSRDELTKNQVSLSCAVKGFYPSDIAVEWESNGQPENNYKTTPPVLDSDGSFFLVSKLTVDKSRWQQGNVFSCSVMHEALHNRFTQKSLSLSP	–	binds	–
Molecule B: Her2 (pertuzumab CLC)-CD28 (SA_Variant 8) 1+1 format (bispecific antibody, human IgG1, kappa, L234A L235A, huIgG1 PG-LALA CrossFab: VH/VL exchange in the CD28 Fab (knob), charged modifications in the Her2 Fab (hole); also called P1AF8305) heavy 1: not shown light 1: QVQLVQSGAEVKKPGASVKVSCKASGYTFTSYYIHWVRQAPGQGLEWIGSIYPGNVQTNYNEKFKDRATLTVDTSISTAYMELSRLRSDDTAVYFCTRSHYGLDFNFDVWGQGTTVTVSSASVAAPSVFIFPPSDEQLKSGTASVVCLLNNFYPREAKVQWKVDNALQSGNSQESVTEQDSKDSTYSLSSTLTLSKADYEKHKVYACEVTHQGLSSPVTKSFNRGEC heavy 2: EVQLVESGGGLVQPGGSLRLSCAASGFTFNDYTMDWVRQAPGKGLEWVADVNPNSGGSIVNRRFKGRFTLSVDRSKNTLYLQMNSLRAEDTAVYYCARNLGPFFYFDYWGQGTLVTVSSASTKGPSVFPLAPSSKSTSGGTAALGCLVEDYFPEPVTVSWNSGALTSGVHTFPAVLQSSGLYSLSSVVTVPSSSLGTQTYICNVNHKPSNTKVDEKVEPKSCDKTHTCPPCPAPEAAGGPSVFLFPPKPKDTLMISRTPEVTCVVVDVSHEDPEVKFNWYVDGVEVHNAKTKPREEQYNSTYRVVSVLTVLHQDWLNGKEYKCKVSNKALGAPIEKTISKAKGQPREPQVCTLPPSRDELTKNQVSLSCAVKGFYPSDIAVEWESNGQPENNYKTTPPVLDSDGSFFLVSKLTVDKSRWQQGNVFSCSVMHEALHNHYTQKSLSLSP light 2: DIQMTQSPSSLSASVGDRVTITCKASQDVSTAVAWYQQKPGKAPKLLIYSASFRYTGVPSRFSGSRSGTDFTLTISSLQPEDFATYYCQQHYTTPPTFGQGTKVEIKRTVAAPSVFIFPPSDRKLKSGTASVVCLLNNFYPREAKVQWKVDNALQSGNSQESVTEQDSKDSTYSLSSTLTLSKADYEKHKVYACEVTHQGLSSPVTKSFNRGEC	–	–	EC50 (read off the curve) [3]: ~3 nM; binding result [4]: binds
Molecule D: Her2 (trastuzumab CLC)-CD28 (SA_variant 8) 1+1 (bispecific antibody, human IgG1, kappa, L234A L235A, huIgG1 PG-LALA CrossFab: VH/VL exchange in the CD28 Fab (knob), charged modifications in the Her2 Fab (hole); also called P1AF8338) heavy 1: not shown light 1: QVQLVQSGAEVKKPGASVKVSCKASGYTFTSYYIHWVRQAPGQGLEWIGSIYPGNVQTNYNEKFKDRATLTVDTSISTAYMELSRLRSDDTAVYFCTRSHYGLDFNFDVWGQGTTVTVSSASVAAPSVFIFPPSDEQLKSGTASVVCLLNNFYPREAKVQWKVDNALQSGNSQESVTEQDSKDSTYSLSSTLTLSKADYEKHKVYACEVTHQGLSSPVTKSFNRGEC heavy 2: not shown light 2: DIQMTQSPSSLSASVGDRVTITCKASQDVSTAVAWYQQKPGKAPKLLIYSASFRYTGVPSRFSGSRSGTDFTLTISSLQPEDFATYYCQQHYTTPPTFGQGTKVEIKRTVAAPSVFIFPPSDRKLKSGTASVVCLLNNFYPREAKVQWKVDNALQSGNSQESVTEQDSKDSTYSLSSTLTLSKADYEKHKVYACEVTHQGLSSPVTKSFNRGEC	–	–	EC50 (read off the curve) [3]: ~3 nM; binding result [4]: binds
